The assay deals with HLA-A*02:01-restricted MART-1 epitope, A*02:0. Briefly: cell-based or functional assay.

This is an account of results in patent US20220389406A1.

The substance DMF4 (TCR) came in with a frequency of the TCR in post-real-selection (CD137-positive, sorted) against pre-selection polyclonal TCR-T cells, by NGS of 10 fold.
